Experimental findings from article PMC6686231 are described below.

The target of data set [1] is P34/P37 (trypanosome-specific proteins). In words: co-IP; whole-cell extract of 10×-Ty-TbRrs1 T. brucei cells, beads with anti-P34/P37, anti-TbL5 or anti-TbRpf2 antibody, anti-Ty Western blot of pellet and supernatant; cellular RNA digested with RNase A. A general note: Immunoblotting shows a protein as a band on a membrane.
For data set [2], the target named is TbRpf2 (T. brucei homologue of Rpf2), endogenous (T. brucei (endogenous in 10×-Ty-TbRrs1 cells)). The description is as above.
Data set [3] addresses TbL5 (T. brucei homologue of ribosomal protein L5), endogenous (T. brucei (endogenous in 10×-Ty-TbRrs1 cells)). The description is as above.
Data set [4] deals with P34/P37 (trypanosome-specific proteins). In words: co-IP; whole-cell extract of 10×-Ty-TbRrs1 T. brucei cells, beads with anti-P34/P37, anti-TbL5 or anti-TbRpf2 antibody, anti-Ty Western blot of pellet and supernatant; without RNase A.
Data set [5] has as its target TbRpf2 (T. brucei homologue of Rpf2), endogenous (T. brucei (endogenous in 10×-Ty-TbRrs1 cells)). The data set is described as above.
Data set [6] addresses TbL5 (T. brucei homologue of ribosomal protein L5), endogenous (T. brucei (endogenous in 10×-Ty-TbRrs1 cells)). The description is as above.
Data set [7] addresses recombinant TbL5 (T. brucei). Briefly: co-IP; recombinant TbRrs1 incubated with recombinant P34, TbL5 or TbRpf2, precipitated with anti-P34, anti-L5 or anti-Rpf2 antibody, with or without in vitro-transcribed 5S rRNA; anti-His Western blot of pellet and supernatant.
Data set [8] has as its target recombinant P34 (T. brucei). The data set is described as above.
Data set [9] concerns the target recombinant TbRpf2 (T. brucei). The description is as above.
The test system of data set [10] is SUMO-TbRrs1 (Trypanosoma brucei). In words: filter binding. Particulars: Filter binding with radiolabeled 5S rRNA, triplicate; buffer, salt, pH and temperature not given (as in ref 9).
In data set [11] the test system is (His)6-TbRpf2 (Trypanosoma brucei). Briefly: filter binding. Conditions: without TbRrs1; text also cites ref 11; Filter binding with radiolabeled 5S rRNA, triplicate; buffer, salt, pH and temperature not given (as in ref 9).
For data set [12], the system named is TbRpf2 (coexpressed, untagged);(His)6-TbRrs1 (coexpressed) (Trypanosoma brucei;Trypanosoma brucei). In words: filter binding. Particulars: coexpressed complex; Filter binding with radiolabeled 5S rRNA, triplicate; buffer, salt, pH and temperature not given (as in ref 9).

What is called Kd is the free concentration of one partner at which half of the binding sites on the other are occupied at equilibrium, for simple one-to-one binding.

As to “10×-Ty-TbRrs1 (Trypanosoma brucei homologue of regulator of ribosome synthesis 1, Ty-tagged at one copy of the gene) (natural protein)”, the amount in the pellet relative to pellet plus supernatant in [1] was 0.61; in data set [2], 0.58; in data set [3], 0.63; in data set [4] it was 0.06; in [5] it was 0.02; in data set [6], 0.24.

For “SUMO-TbRrs1 (recombinant) (natural protein)”, the amount in the pellet relative to pellet plus supernatant, with 5S rRNA amounted to 0.74 in data set [7], 0.71 in data set [8] and 0.65 in data set [9]. Also, the amount in the pellet relative to pellet plus supernatant, without 5S rRNA stood at 0.78 in data set [7], 0.77 in data set [8] and 0.53 in [9].

As to T. brucei 5S rRNA, the equilibrium dissociation constant (Kd) was 54.4 nM in data set [10], 17 nM in data set [11] and 17.5 nM in data set [12].
